B1: Kapβ2: nuclear import receptor karyopherin-β2, recombinant (protein)
chain: MVWDRQTKMEYEWKPDEQGLQQILQLLKESQSPDTTIQRTVQQKLEQLNQYPDFNNYLIFVLTKLKSEDEPTRSLSGLILKNNVKAHFQNFPNGVTDFIKSECLNNIGDSSPLIRATVGILITTIASKGELQNWPDLLPKLCSLLDSEDYNTCEGAFGALQKICEDSAEILDSDVLDRPLNIMIPKFLQFFKHSSPKIRSHAVACVNQFIISRTQALMLHIDSFIENLFALAGDEEPEVRKNVCRALVMLLEVRMDRLLPHMHNIVEYMLQRTQDQDENVALEACEFWLTLAEQPICKDVLVRHLPKLIPVLVNGMKYSDIDIILLKGDVEEDETIPDSEQDIRPRFHRSRTVAQQHDEDGIEEEDDDDDEIDDDDTISDWNLRKCSAAALDVLANVYRDELLPHILPLLKELLFHHEWVVKESGILVLGAIAEGCMQGMIPYLPELIPHLIQCLSDKKALVRSITCWTLSRYAHWVVSQPPDTYLKPLMTELLKRILDSNKRVQEAACSAFATLEEEACTELVPYLAYILDTLVFAFSKYQHKNLLILYDAIGTLADSVGHHLNKPEYIQMLMPPLIQKWNMLKDEDKDLFPLLECLSSVATALQSGFLPYCEPVYQRCVNLVQKTLAQAMLNNAQPDQYEAPDKDFMIVALDLLSGLAEGLGGNIEQLVARSNILTLMYQCMQDKMPEVRQSSFALLGDLTKACFQHVKPCIADFMPILGTNLNPEFISVCNNATWAIGEISIQMGIEMQPYIPMVLHQLVEIINRPNTPKTLLENTAITIGRLGYVCPQEVAPMLQQFIRPWCTSLRNIRDNEEKDSAFRGICTMISVNPSGVIQDFIFFCDAVASWINPKDDLRDMFCKILHGFKNQVGDENWRRFSDQFPLPLKERLAAFYGV
modifications: left off: GST, end not stated, cleaved
notes: nuclear import receptor karyopherin-β2, recombinant
B2: FUS-ΔNLS: FUS (1-500, FUS-ΔNLS) (protein)
chain: MASNDYTQQATQSYGAYPTQPGQGYSQQSSQPYGQQSYSGYSQSTDTSGYGQSSYSSYGQSQNTGYGTQSTPQGYGSTGGYGSSQSSQSSYGQQSSYPGYGQQPAPSSTSGSYGSSSQSSSYGQPQSGSYSQQPSYGGQQQSYGQQQSYNPPQGYGQQNQYNSSSGGGGGGGGGGNYGQDQSSMSSGGGSGGGYGNQDQSGGGGSGGYGQQDRGGRGRGGSGGGGGGGGGGYNRSSGGYEPRGRGGGRGGRGGMGGSDRGGFNKFGGPRDQGSRHDSEQDNSDNNTIFVQGLGENVTIESVADYFKQIGIIKTNKKTGQPMINLYTDRETGKLKGEATVSFDDPPSAKAAIDWFDGKEFSGNPIKVSFATRRADFNRGGGNGRGGRGRGGPMGRGGYGGGGSGGGGRGGFPSGGGGGGGQQRAGDWKCPNPTCENMNFSWRNECNQCKAPKPDGPGGGPGGSHMGGNYGDDRRGGRGGYDRGGYRGRGGDRGGFRGGRGG
modifications: left off: MBP, end not stated, state not stated

Tests used:
[1] = tested on: MBP:FUS (full-length FUS droplets) / Kapβ2; experiment: Turbidity assay of FUS droplet formation (OD 395 nm); assay type: biochemical; settings: 8 μM Kapβ2, 8 μM MBP:FUS
[2] = tested on: GFP:FUS-LC:NLS / mCh:FUS-LC hydrogel; experiment: Hydrogel binding assay, GFP:FUS-LC:NLS on mCh:FUS-LC hydrogel; assay type: biochemical; settings: Kapβ2 0.1-1.0 µM; PR20 with 1.0 µM Kapβ2
Procedure: The experiment was independently repeated three times with similar results. Here, 10 μm scale bars are shown in the image. e Graphical description of hydrogel binding assay. Hydrogels of mCh:LC-domain accumulate GFP:LC-domain as it co-polymerizes. f Hydrogel binding assay for FUS-LC in the absence and presence of Kapβ2. mCh:FUS-LC (lower images) were incubated with 1.0 µM of GFP (left panel) or 1.0 µM of GFP:FUS-LC:NLS (right panel) in the presence of different concentrations of Kapβ2 (left to right: 0.1, 0.3, and 1.0 µM). g Quantitative analysis of Fig. 1f. Relative intensity of GFP signals is shown as the mean of three independent experiments ± SD, analyzed by one-way ANOVA followed by Dunnett’s multiple comparison test (**P < 0.01, ***P < 0.001). h Hydrogel binding assay for FUS-LC in the absence and presence of Kapβ2 and/or PR20. Hydrogel droplets of mCh:FUS-LC (lower images) were incubated with 1.0 µM of GFP (left panel) or GFP:FUS-LC:NLS (right panel). GFP:FUS-LC:NLS containing Kapβ2 (1.0 µM) was challenged for homotypic polymer extension in the absence or presence of different concentration of PR20. i Quantitative analysis of Fig. 1h. Relative intensity of GFP signals is shown as the mean of three independent experiments ± SD, analyzed by one-way ANOVA followed by Dunnett’s multiple comparison test (**P < 0.01). Source data are provided as a Source Data file. […]

[3] = tested on: FUS droplets (MBP:FUS/MBP:FUS:EGFP) / Kapβ2; experiment: Fluorescence microscopy of FUS droplets; assay type: biochemical; settings: 16 μM Kapβ2, 16 μM Kapβ2–M9M complex, 50 μM PR20, repeated three times
[4] = tested on: GFP:FUS-LC / mCh:FUS-LC hydrogel; experiment: Hydrogel binding assay, GFP:FUS-LC on mCh:FUS-LC hydrogel; assay type: biochemical; settings: Kapβ2 0.1-10.0 µM; 1.0 µM GFP:FUS-LC
Excerpt: Expression plasmids for recombinant proteins (GFP/mCherry fusion LC-domain of FUS (residue 2–214, GFP/mCh:FUS-LC) and GFP/mCherry fusion LC-domain of hnRNPA2 (residue 181–341, GFP/mCh:hnRNPA2-LC)) were obtained from the Steven L. McKnight Laboratory. Expression plasmid for GFP:FUS-LC fusion NLS (residue 501–526, GFP:FUS-LC:NLS), mCh fusion LC-domain of TDP43 (residue 262–414, mCh:TDP43-LC), and GFP-tagged cNLS (residue 78–99) fusion TDP43-LC (GFP:cNLS:TDP43-LC) were constructed using In-Fusion HD Cloning Kit (Takara Bio, Inc.). GFP/mCh:FUS-LC, GFP:FUS-LC:NLS, and GFP/mCh:hnRNPA2-LC were expressed in E. coli BL21(DE3) cells with 0.5 mM IPTG at 20 °C overnight and purified by Ni-NTA Agarose (FUJIFILM Wako Pure Chemical Corporation), as described in a previous study. GFP:cNLS:TDP43-LC were expressed with 1.0 mM IPTG at 37 °C for 3 h and mCh:TDP43-LC were expressed with 0.5 mM IPTG at 16 °C overnight. GFP:cNLS:TDP43-LC and mCh:TDP43-LC were purified by Ni-NTA as described in a previous study[48] with some modifications. […] Relative intensity of GFP signals across the hydrogel droplets were measured in triplicate by using the profile plot mode in ImageJ. […]

Kapβ2 = experiment: Solution NMR (1H-13C methyl) of labelled Kapβ2; assay type: binding; settings: comparison of perturbations by PR20, M9M and FUS-ΔNLS
Procedure: The Kapβ2 expression plasmid was transformed into BL21(DE3) cells. The protein samples with ^1H,^13C-labeled methyl groups in deuterium background were prepared as described in a previous study. The cells were grown in medium with ^15NH4Cl (2 gL^−1, CIL) and ^2H7-glucose (2 g L^−1, CIL) in 99.9% ^2H2O (Isotec). The precursors for methyl groups of Ile, Val, and Leu, α-ketobutyric acid (50 mg L^−1) and α-ketoisovaleric acid (80 mg L^−1), and [^13CH3] methionine (50 mg L^−1) were added to the culture 1 h before the addition of IPTG. Protein expression was induced by the addition of 0.5 mM IPTG at OD600 ~ 0.6, followed by ~16 h of incubation at 25 °C. […] Protein concentration was determined spectrophotometrically at 280 nm using a corresponding extinction coefficient.
The isotopically labeled Kapβ2 was prepared in the NMR buffer containing 20 mM ^2H-Tris pH 7.4, 150 mM NaCl, 2 mM MgCl2, 2 mM DTT, and 2% glycerol, concentrated to 20 μM. […] Perturbation of the side chain methyl resonances were each monitored using ^1H-^13C heteronuclear multiple quantum coherence. […] The perturbations of the resonances were evaluated based on chemical shift change or intensity change. […]
In order to investigate the interaction between Kapβ2 and PR poly-dipeptide by NMR, the NMR spectra of the isotopically labeled Kapβ2 in the absence and presence of the synthetic peptide of PR20:HA were measured. […]

Row | Molecule | Effect of Kapβ2 on FUS droplet formation (turbidity) [1] | Effect on hydrogel binding of GFP:FUS-LC:NLS [2] | Effect on FUS droplets (microscopy) [3] | Effect on hydrogel binding of GFP:FUS-LC [4] | Binding site on Kapβ2 by NMR (Kapβ2)
1 | B1 | kept FUS from changing into liquid-like droplets | blocked by Kapβ2 | FUS droplets are dissolved by Kapβ2 | not blocked | 
2 | B2 |  |  |  |  | the binding site for FUS-ΔNLS does not overlap with that for PR20

Reference: article PMC8421406, “C9orf72-derived arginine-rich poly-dipeptides impede phase modifiers” (Nature Communications, 2021)
